Paper PMC10204968

Molecular target: Hfq (His6-Hfq) (Histophilus somni strain 2336) (UniProt B0UTF5)
Test: EMSA
Details: 10 mM Tris-HCl pH 7.4, 6% glycerol, 50 ug/ml BSA, 0.75 ug baker's yeast tRNA, 200 ng sRNA, 15 ul, room temperature 30 min; 6% native PAGE, 0.5x TBE, GelGreen …

Hfq (His6-Hfq) (Histophilus somni strain 2336), sequence (B0UTF5 whole entry): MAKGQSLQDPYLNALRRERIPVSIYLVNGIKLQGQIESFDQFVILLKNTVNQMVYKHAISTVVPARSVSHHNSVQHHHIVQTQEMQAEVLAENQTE

| Sequence | binding |
| --- | --- |
| GGGAAUAAUACUGAAUAAUAGCUAUAUUACGACAAAGGGCGUAAGCUGCCACAAGUGCUACUUAAUCGGGCGUAAGCUGCCAUAAGUGCUACUUAAUUAGGUGCAAGCUACCGUAAGUGCUGAAGAAAAGAUGCCUAACGGCAUCUUUUUUUUGCU [HS9 sRNA] | binds |
| GGGCGCUGGCAGGCUAAUGACUAAUAAGAUGAUAACUAGGAUAAUGUAUUUAAACAUUGUGUUAUCCUCUUCAAAGUUGGGUGGAUUGAAGGUCGCACCCAGCUCGUUUCCGCAGUAUUGCGAAAACAAGAAUAUUAUAGGUCGUUUUAUAUUUCUGGUCAAGGAAUAAAACGACCUAUUUUUUAUUUGAC [HS97 sRNA] | binds |
